Changes are numbered by the printed parent chain.
T1: recombinant BCMA (Sino Biological 10620-H03H-B) (human, UniProt Q02223 1-54)
T1 construct: Bought protein; also called human BCMA
T1 sequence (looked up): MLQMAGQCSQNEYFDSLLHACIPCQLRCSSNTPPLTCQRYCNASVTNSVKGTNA

B1: Anti-CD38 LC_Y92A (antibody, V domains shown)
VH: EVQLLESGGGLVQPGGSLRLSCAASGFSFNNYWIIWIRQAPGKGLEWVAAIYSPSGDIKYYADWAKGRFTVSKDNSKNTVYLQMNSLRAEDTAVYYCARELSGSSYEGYFESWGQGTLVTVSS
VL: DIQLTQSPSTLSASVGDRVTITCRSSQSVYGHNWLAWYQQKPGKAPKLLMYRASNLASGVPSRFSGSGSGTEFTLTISSVQPDDFATYYCQGYASGGSYAFGGGTKVEIK
notes: Alanine variant of h18E4-19 with the parent VH
B2: Anti-CD38 LC_Y96A (antibody, V domains shown)
VH: B1 VH
VL: B1 VL with A94Y, Y99A
notes: as for B1
B3: Anti-BCMA (antibody, human IgG1, kappa)
heavy: not shown
light: DIQLTQTTSSLSASLGDRVTISCSASQDISNYLNWYQQKPDGTVELVIYYTSNLHSGVPSRFSGSGSGTDYSLTIGYLEPEDVATYYCQQYRKLPWTFGGGSKLEIKRTVAAPSVFIFPPSDEQLKSGTASVVCLLNNFYPREAKVQWKVDNALQSGNSQESVTEQDSKDSTYSLSSTLTLSKADYEKHKVYACEVTHQGLSSPVTKSFNRGEC
notes: also called Anti-BCMA BMK2 antibody; Anti-BCMA.BMK2
B4: Anti-BCMA.BMK2_ADCC.high (antibody, human IgG1, kappa)
heavy: EVQLQQSGAVLARPGASVKMSCKGSGYTFTNYWMHWVKQRPGQGLEWIGATYRGHSDTYYNQKFKGKAKLTAVTSTSTAYMELSSLTNEDSAVYYCTRGAIYNGYDVLDNWGQGTLVTVSSASTKGPSVFPLAPSSKSTSGGTAALGCLVKDYFPEPVTVSWNSGALTSGVHTFPAVLQSSGLYSLSSVVTVPSSSLGTQTYICNVNHKPSNTKVDKKVEPKSCDKTHTCPPCPAPELLGGPDVFLFPPKPKDTLMISRTPEVTCVVVDVSHEDPEVKFNWYVDGVEVHNAKTKPREEQYNSTYRVVSVLTVLHQDWLNGKEYKCKVSNKALPLPEEKTISKAKGQPREPQVYTLPPSRDELTKNQVSLTCLVKGFYPSDIAVEWESNGQPENNYKTTPPVLDSDGSFFLYSKLTVDKSRWQQGNVFSCSVMHEALHNHYTQKSLSLSPGK
light: DIQLTQTTSSLSASLGDRVTISCSASQDISNYLNWYQQKPDGTVELVIYYTSNLHSGVPSRFSGSGSGTDYSLTIGYLEPEDVATYYCQQYRKLPWTFGGGSKLEIKRRTVAAPSVFIFPPSDEQLKSGTASVVCLLNNFYPREAKVQWKVDNALQSGNSQESVTEQDSKDSTYSLSSTLTLSKADYEKHKVYACEVTHQGLSSPVTKSFNRGEC
notes: Monoclonal IgG1 with ADCC-high Fc mutations; also called ADCC-high variant of Anti-BCMA BMK2 antibody

Legend:
[1] = biological target: T2, human CD38 extracellular domain (hCD38, recombinant, with AviTag) (human, UniProt P28907 43-300); experiment: ELISA on human CD38 ECD, EC50 class
T2 construct: also called recombinant CD38; huCD38

[2] = biological target: T1, recombinant BCMA (Sino Biological …); experiment: ELISA, plate coated with recombinant BCMA
Experimental: After washing 3 times, the plate was blocked with 300 μl 1% BSA in PBST at 37° C. for 1 hour. Serially diluted antibodies were added and incubated at 37° C. for 1 hour. The plate was then washed 4 times with PBST and incubated with 1:5000 diluted 2nd antibody (Sigma, Cat #A0293) at 37° C. for 1 hour. The plate was washed again 4 times with PBST, incubated with TMB substrate for 15 min at room temperature, terminated with IN HCl, and then read at 450 nm.

| Binder | EC50 [1] [nM] | EC50 [2] [nM] |
| --- | --- | --- |
| B1 | 0.02 to 0.1 |  |
| B2 | 0.1 to 0.5 |  |
| B3 |  | ~0.02 |
| B4 |  | ~0.02 |

— patent US20230183381A1 (VIRTUOSO BINCO, published 2023)
